Results published in paper PMC10397247.

What was measured:
[1] = target: T1, 4H968-bN; experiment: two-hybrid library CCNG1;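 further: natural log of median RNA to DNA barcode read ratio; higher means stronger binding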
T1 chain: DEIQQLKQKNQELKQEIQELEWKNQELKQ

[2] = target: T2, 4H510-AA; experiment: two-hybrid library CCmax; settings: mean of both orientations;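 further: natural log of median RNA to DNA barcode read ratio; higher means stronger binding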
T2 chain: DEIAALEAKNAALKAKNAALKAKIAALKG

[3] = target: T3, O11-AA; experiment: two-hybrid library CCmax; settings: mean of both orientations;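 further: natural log of median RNA to DNA barcode read ratio; higher means stronger binding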
T3 chain: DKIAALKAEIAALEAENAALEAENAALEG

[4] = target: T4, O13-AA; experiment: two-hybrid library CCmax; settings: mean of both orientations;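 further: natural log of median RNA to DNA barcode read ratio; higher means stronger binding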
T4 chain: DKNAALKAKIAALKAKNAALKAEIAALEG

[5] = target: T5, O14-AA; experiment: two-hybrid library CCmax; settings: mean of both orientations
T5 chain: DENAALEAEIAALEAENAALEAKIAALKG

[6] = target: T6, 4H_APH; experiment: two-hybrid library CCmax
T6 chain: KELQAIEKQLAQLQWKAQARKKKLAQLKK

[7] = target: GCN2_T; experiment: two-hybrid library CCmax
[8] = target: T7, 4H_BCR; experiment: two-hybrid library CCmax; settings: mean of both orientations
T7 chain: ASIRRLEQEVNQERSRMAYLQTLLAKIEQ

[9] = target: 4H_GCN4; experiment: two-hybrid library CCmax
[10] = target: T8, 4H3920-AA; experiment: two-hybrid library CCmax; settings: mean of both orientations
T8 chain: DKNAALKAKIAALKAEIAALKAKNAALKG

[11] = target: T9, 4H428-AA; experiment: two-hybrid library CCmax; settings: mean of both orientations
T9 chain: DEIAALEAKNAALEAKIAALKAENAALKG

[12] = target: T10, 4H656-AA; experiment: two-hybrid library CCmax; settings: mean of both orientations
T10 chain: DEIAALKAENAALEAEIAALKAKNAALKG

[13] = target: T11, 4H3939-AA; experiment: two-hybrid library CCmax; settings: mean of both orientations
T11 chain: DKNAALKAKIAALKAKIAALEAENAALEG

[14] = target: T12, 4H497-AA; experiment: two-hybrid library CCmax; settings: mean of both orientations
T12 chain: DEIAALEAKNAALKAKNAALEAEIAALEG

[15] = target: T13, 4H971-AA; experiment: two-hybrid library CCmax; settings: mean of both orientations
T13 chain: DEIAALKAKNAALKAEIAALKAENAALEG

[16] = target: T14, 4H478-AA; experiment: two-hybrid library CCmax; settings: mean of both orientations
T14 chain: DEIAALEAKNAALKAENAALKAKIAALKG

[17] = target: T15, 4H675-AA; experiment: two-hybrid library CCmax; settings: mean of both orientations
T15 chain: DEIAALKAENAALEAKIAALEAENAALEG

[18] = target: T16, 4H3709-AA; experiment: two-hybrid library CCmax
T16 chain: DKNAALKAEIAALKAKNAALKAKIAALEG

[19] = target: T17, 4H391-AA; experiment: two-hybrid library CCmax; settings: mean of both orientations
T17 chain: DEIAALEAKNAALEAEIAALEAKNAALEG

[20] = target: T18, 4H968-bA; experiment: two-hybrid library CCNG1
T18 chain: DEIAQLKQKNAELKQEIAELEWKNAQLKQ

[21] = target: T19, 4H908-bH; experiment: two-hybrid library CCNG1
T19 chain: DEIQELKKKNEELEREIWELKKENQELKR

[22] = target: T20, 4H953-bH; experiment: two-hybrid library CCNG1
T20 chain: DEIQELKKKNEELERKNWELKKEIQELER

[23] = target: T21, 4H918-bH; experiment: two-hybrid library CCNG1
T21 chain: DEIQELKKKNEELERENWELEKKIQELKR

[24] = target: T22, 4H967-bH; experiment: two-hybrid library CCNG1
T22 chain: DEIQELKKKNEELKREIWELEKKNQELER

[25] = target: T23, 4H883-bH; experiment: two-hybrid library CCNG1
T23 chain: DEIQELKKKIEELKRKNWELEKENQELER

[26] = target: T24, 4H754-bH; experiment: two-hybrid library CCNG1
T24 chain: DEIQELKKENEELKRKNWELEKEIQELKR

[27] = target: T25, 4H797-bH; experiment: two-hybrid library CCNG1
T25 chain: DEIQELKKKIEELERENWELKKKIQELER

[28] = target: T26, 4H72-bH; experiment: two-hybrid library CCNG1
T26 chain: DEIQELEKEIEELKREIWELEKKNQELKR

[29] = target: T27, 4H953-bN; experiment: two-hybrid library CCNG1
T27 chain: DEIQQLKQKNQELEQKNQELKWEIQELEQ

[30] = target: T28, 4H967-bN; experiment: two-hybrid library CCNG1
T28 chain: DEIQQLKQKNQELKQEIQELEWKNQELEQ

[31] = target: T29, 4H967-bA; experiment: two-hybrid library CCNG1
T29 chain: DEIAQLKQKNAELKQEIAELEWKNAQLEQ

[32] = target: T30, 4H918-bA; experiment: two-hybrid library CCNG1
T30 chain: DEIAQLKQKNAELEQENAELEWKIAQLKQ

[33] = target: T31, 4H953-bA; experiment: two-hybrid library CCNG1
T31 chain: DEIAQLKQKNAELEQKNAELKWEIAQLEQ

[34] = target: T32, APC9291-AA; experiment: two-hybrid library CCmax; settings: mean of both orientations
T32 chain: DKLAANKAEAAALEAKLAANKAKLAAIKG

[35] = target: T33, APC9182-AA; experiment: two-hybrid library CCmax; settings: mean of both orientations
T33 chain: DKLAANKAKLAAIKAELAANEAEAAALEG

[36] = target: T34, APC9806-AA; experiment: two-hybrid library CCmax; settings: mean of both orientations
T34 chain: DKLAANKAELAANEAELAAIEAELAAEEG

[37] = target: T35, APC9141-AA; experiment: two-hybrid library CCmax
T35 chain: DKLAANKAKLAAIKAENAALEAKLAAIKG

[38] = target: T36, 4H891-AA; experiment: two-hybrid library CCmax; settings: mean of both orientations
T36 chain: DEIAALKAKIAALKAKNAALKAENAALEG

[39] = target: T37, 4H570-AA; experiment: two-hybrid library CCmax; settings: mean of both orientations
T37 chain: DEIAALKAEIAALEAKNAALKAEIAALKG

[40] = target: T38, 4H485-AA; experiment: two-hybrid library CCmax; settings: mean of both orientations
T38 chain: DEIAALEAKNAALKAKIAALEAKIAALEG

[41] = target: T39, 4H458-AA; experiment: two-hybrid library CCmax; settings: mean of both orientations
T39 chain: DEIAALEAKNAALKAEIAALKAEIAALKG

[42] = target: T40, 4H710-AA; experiment: two-hybrid library CCmax; settings: mean of both orientations
T40 chain: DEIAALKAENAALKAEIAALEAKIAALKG

[43] = target: T41, 4H3130-AA; experiment: two-hybrid library CCmax; settings: mean of both orientations
T41 chain: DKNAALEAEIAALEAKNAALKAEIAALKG

[44] = target: T42, 4H3697-AA; experiment: two-hybrid library CCmax; settings: mean of both orientations
T42 chain: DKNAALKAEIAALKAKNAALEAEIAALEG

[45] = target: T43, 4H536-AA; experiment: two-hybrid library CCmax; settings: mean of both orientations
T43 chain: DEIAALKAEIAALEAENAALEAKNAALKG

[46] = target: T44, 4H909-AA; experiment: two-hybrid library CCmax; settings: mean of both orientations
T44 chain: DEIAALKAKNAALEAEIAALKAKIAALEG

[47] = target: T45, 4H745-AA; experiment: two-hybrid library CCmax; settings: mean of both orientations
T45 chain: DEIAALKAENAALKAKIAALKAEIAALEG

[48] = target: T46, 4H310-AA; experiment: two-hybrid library CCmax
T46 chain: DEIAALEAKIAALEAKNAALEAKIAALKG

[49] = target: T47, 4H629-AA; experiment: two-hybrid library CCmax; settings: mean of both orientations
T47 chain: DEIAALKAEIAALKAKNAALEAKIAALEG

[50] = target: T48, 4H3120-AA; experiment: two-hybrid library CCmax; settings: mean of both orientations
T48 chain: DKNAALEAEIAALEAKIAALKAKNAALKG

[51] = target: T49, 4H3381-AA; experiment: two-hybrid library CCmax; settings: mean of both orientations
T49 chain: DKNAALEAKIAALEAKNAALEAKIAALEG

[52] = target: T50, 4H3590-AA; experiment: two-hybrid library CCmax; settings: mean of both orientations
T50 chain: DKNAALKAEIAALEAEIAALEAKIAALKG

[53] = target: T51, 4H3165-AA; experiment: two-hybrid library CCmax; settings: mean of both orientations
T51 chain: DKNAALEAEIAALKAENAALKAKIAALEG

[54] = target: T52, 4H797-AA; experiment: two-hybrid library CCmax; settings: mean of both orientations
T52 chain: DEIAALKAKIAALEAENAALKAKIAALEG

[55] = target: T53, 4H3865-AA; experiment: two-hybrid library CCmax; settings: mean of both orientations
T53 chain: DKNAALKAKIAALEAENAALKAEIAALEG

[56] = target: T54, 4H94-AA; experiment: two-hybrid library CCmax; settings: mean of both orientations
T54 chain: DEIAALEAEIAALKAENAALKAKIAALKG

[57] = target: T55, 4H3410-AA; experiment: two-hybrid library CCmax; settings: mean of both orientations
T55 chain: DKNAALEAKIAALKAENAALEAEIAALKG

[58] = target: T56, 4H3395-AA; experiment: two-hybrid library CCmax; settings: mean of both orientations
T56 chain: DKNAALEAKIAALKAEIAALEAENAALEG

[59] = target: T57, 4H930-AA; experiment: two-hybrid library CCmax; settings: mean of both orientations
T57 chain: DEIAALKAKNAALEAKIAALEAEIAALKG

[60] = target: T58, 4H850-AA; experiment: two-hybrid library CCmax; settings: mean of both orientations
T58 chain: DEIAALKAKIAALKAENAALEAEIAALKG

[61] = target: T59, 4H3753-AA; experiment: two-hybrid library CCmax; settings: mean of both orientations
T59 chain: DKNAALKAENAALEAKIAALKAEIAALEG

4H_GCN4, sequence (chain, as listed by the source): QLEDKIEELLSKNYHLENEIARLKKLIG

B1: 4H968-bN (peptide)
chain: DEIQQLKQKNQELKQEIQELEWKNQELKQ
[1]
  interaction score: 0.264

B2: 4H451-AA (peptide)
chain: DEIAALEAKNAALKAEIAALEAENAALEG
[2]
  interaction score: -1.68
[3]
  interaction score: -1.9
[4]
  interaction score: -1.74
[5]
  interaction score: 0.209
[6]
  interaction score: -1.88
[7]
  interaction score: -0.954
[8]
  interaction score: -1.98
[9]
  interaction score: -1.53

B3: 4H3709-AA (peptide)
chain: DKNAALKAEIAALKAKNAALKAKIAALEG
[10]
  interaction score: -1.81
[11]
  interaction score: -2.58
[12]
  interaction score: 0.489
[13]
  interaction score: -2.03
[14]
  interaction score: -1.73
[15]
  interaction score: -1.69
[16]
  interaction score: -0.647
[17]
  interaction score: 1.6
[18]
  interaction score: 0.066
[19]
  interaction score: -1.04

B4: 4H968-bA (peptide)
chain: DEIAQLKQKNAELKQEIAELEWKNAQLKQ
[20]
  interaction score: -1.46

B5: 4H883-bH (peptide)
chain: DEIQELKKKIEELKRKNWELEKENQELER
[21]
  interaction score: -0.306
[22]
  interaction score: -0.831
[23]
  interaction score: -0.51
[24]
  interaction score: -0.709
[25]
  interaction score: 0.33

B6: 4H72-bH (peptide)
chain: DEIQELEKEIEELKREIWELEKKNQELKR
[26]
  interaction score: -0.378
[27]
  interaction score: 0
[21]
  interaction score: 0.614
[22]
  interaction score: 0.653
[23]
  interaction score: 0.163
[28]
  interaction score: 0.746
[24]
  interaction score: 0.0764
[25]
  interaction score: 1.69

B7: 4H953-bN (peptide)
chain: DEIQQLKQKNQELEQKNQELKWEIQELEQ
[29]
  interaction score: -1.67
[1]
  interaction score: -1.24
[30]
  interaction score: -1.76

B8: 4H918-bA (peptide)
chain: DEIAQLKQKNAELEQENAELEWKIAQLKQ
[31]
  interaction score: -0.684
[32]
  interaction score: 0.453
[33]
  interaction score: 1.53
[20]
  interaction score: -0.293

B9: APC9141-AA (peptide)
chain: DKLAANKAKLAAIKAENAALEAKLAAIKG
[34]
  interaction score: -1.86
[35]
  interaction score: -1.82
[36]
  interaction score: -1.67
[37]
  interaction score: -2.08

B10: 4H908-bH (peptide)
chain: DEIQELKKKNEELEREIWELKKENQELKR
[21]
  interaction score: 0.057
[22]
  interaction score: -0.842
[23]
  interaction score: -2.03
[24]
  interaction score: -0.426

B11: 4H310-AA (peptide)
chain: DEIAALEAKIAALEAKNAALEAKIAALKG
[38]
  interaction score: -0.168
[39]
  interaction score: 1.97
[40]
  interaction score: -0.778
[41]
  interaction score: 1.7
[42]
  interaction score: -0.577
[43]
  interaction score: -0.0638
[44]
  interaction score: 0.375
[45]
  interaction score: -0.922
[46]
  interaction score: -1.39
[47]
  interaction score: -0.998
[48]
  interaction score: 1.89
[49]
  interaction score: -0.767
[50]
  interaction score: -1.43
[51]
  interaction score: 0.757
[52]
  interaction score: -0.923
[53]
  interaction score: -1.5
[54]
  interaction score: -0.563
[55]
  interaction score: 1.13
[56]
  interaction score: -0.904
[57]
  interaction score: -0.251
[58]
  interaction score: -1.03
[59]
  interaction score: -1.11
[60]
  interaction score: 1.33
[61]
  interaction score: -1.8
